Measured values as given in the supplement of paper PMC9112550, “Optimization of the antimicrobial peptide Bac7 by deep mutational scanning” (BMC Biology, 2022).

Test system: Escherichia coli TOP10
Experiment: shrunken log2 fold change of peptide-encoding DNA abundance (4.5 h post-induction vs induction); higher = less antimicrobial activity (less host growth inhibition)
Settings: time post-induction: 4.5 h; library: site-saturation at positions 5, 18, 19, 20
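Also: peptides expressed intracellularly from a pBAD plasmid library in pooled LB shake-flask culture, induced with 0.3% L-arabinose, DNA abundance read by NGS, three biological replicates, DESeq2 with apeglm shrinkage.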

RRIRWRPPRLPRPRPRPLSQPRP
shrunken log2 fold change: 0.0157

RRIRVRPPRLPRPRPRPKEKPRP
shrunken log2 fold change: -0.0337

RRIRERPPRLPRPRPRPNMTPRP
shrunken log2 fold change: -0.276

RRIRDRPPRLPRPRPRPYGKPRP
shrunken log2 fold change: -0.511

RRIRHRPPRLPRPRPRPQWGPRP
shrunken log2 fold change: -0.149

RRIRIRPPRLPRPRPRPSAHPRP
shrunken log2 fold change: -0.202

RRIRDRPPRLPRPRPRPQLRPRP
shrunken log2 fold change: -0.0942

RRIRLRPPRLPRPRPRPMSAPRP
shrunken log2 fold change: 0.344

RRIRMRPPRLPRPRPRPQFIPRP
shrunken log2 fold change: -0.0965

RRIRHRPPRLPRPRPRPEVNPRP
shrunken log2 fold change: 0.062

RRIRRRPPRLPRPRPRPQFMPRP
shrunken log2 fold change: -0.139

RRIRPRPPRLPRPRPRPAKYPRP
shrunken log2 fold change: -0.317

RRIRLRPPRLPRPRPRPMTGPRP
shrunken log2 fold change: -0.0115

RRIRERPPRLPRPRPRPKRTPRP
shrunken log2 fold change: 0.108

RRIRQRPPRLPRPRPRPPTHPRP
shrunken log2 fold change: 0.106

RRIRSRPPRLPRPRPRPWIPPRP
shrunken log2 fold change: -0.119

RRIRRRPPRLPRPRPRPPWHPRP
shrunken log2 fold change: 0.516

RRIRNRPPRLPRPRPRPQNSPRP
shrunken log2 fold change: -0.38

RRIRARPPRLPRPRPRPFIDPRP
shrunken log2 fold change: -0.554

RRIRARPPRLPRPRPRPGSVPRP
shrunken log2 fold change: 0.301

RRIRFRPPRLPRPRPRPYAMPRP
shrunken log2 fold change: -0.686

RRIRVRPPRLPRPRPRPQISPRP
shrunken log2 fold change: -0.0989

RRIRGRPPRLPRPRPRPDPIPRP
shrunken log2 fold change: 0.126

RRIRCRPPRLPRPRPRPCDLPRP
shrunken log2 fold change: 3.04

RRIRCRPPRLPRPRPRPAWLPRP
shrunken log2 fold change: 0.303

RRIRERPPRLPRPRPRPSINPRP
shrunken log2 fold change: -0.798

RRIRMRPPRLPRPRPRPVHVPRP
shrunken log2 fold change: -0.0337

RRIRRRPPRLPRPRPRPEWGPRP
shrunken log2 fold change: 0.0686

RRIRTRPPRLPRPRPRPDTMPRP
shrunken log2 fold change: 0.0881

RRIRVRPPRLPRPRPRPNFYPRP
shrunken log2 fold change: -0.146

RRIRTRPPRLPRPRPRPDEQPRP
shrunken log2 fold change: 0.0127

RRIRCRPPRLPRPRPRPRCHPRP
shrunken log2 fold change: 0.0572

RRIRCRPPRLPRPRPRPALFPRP
shrunken log2 fold change: 0.344

RRIRARPPRLPRPRPRPWEHPRP
shrunken log2 fold change: -0.0255

RRIRNRPPRLPRPRPRPLCVPRP
shrunken log2 fold change: -0.197

RRIRVRPPRLPRPRPRPMKYPRP
shrunken log2 fold change: -0.0836

RRIRMRPPRLPRPRPRPWKDPRP
shrunken log2 fold change: -0.0578

RRIRSRPPRLPRPRPRPYSWPRP
shrunken log2 fold change: -0.244

RRIRRRPPRLPRPRPRPYGMPRP
shrunken log2 fold change: -0.242

RRIRNRPPRLPRPRPRPPIAPRP
shrunken log2 fold change: -0.312

RRIRPRPPRLPRPRPRPTEHPRP
shrunken log2 fold change: -0.1

RRIRVRPPRLPRPRPRPRNWPRP
shrunken log2 fold change: 0.4

RRIRERPPRLPRPRPRPCMQPRP
shrunken log2 fold change: -0.133

RRIRDRPPRLPRPRPRPSGWPRP
shrunken log2 fold change: 0.558

RRIRGRPPRLPRPRPRPAGDPRP
shrunken log2 fold change: 1.11

RRIRFRPPRLPRPRPRPNVCPRP
shrunken log2 fold change: -0.0089

RRIRRRPPRLPRPRPRPILCPRP
shrunken log2 fold change: 0.48

RRIRPRPPRLPRPRPRPDANPRP
shrunken log2 fold change: 0.172

RRIRLRPPRLPRPRPRPTYLPRP
shrunken log2 fold change: -0.0138

RRIRSRPPRLPRPRPRPHASPRP
shrunken log2 fold change: 0.188

RRIRVRPPRLPRPRPRPTKHPRP
shrunken log2 fold change: -0.135

RRIRIRPPRLPRPRPRPKNRPRP
shrunken log2 fold change: -0.26

RRIRDRPPRLPRPRPRPREPPRP
shrunken log2 fold change: 0.112

RRIRRRPPRLPRPRPRPTVNPRP
shrunken log2 fold change: 0.15

RRIRERPPRLPRPRPRPMGIPRP
shrunken log2 fold change: -0.113

RRIRNRPPRLPRPRPRPFCNPRP
shrunken log2 fold change: -0.126

RRIRARPPRLPRPRPRPLNFPRP
shrunken log2 fold change: -0.249

RRIRTRPPRLPRPRPRPEMTPRP
shrunken log2 fold change: 0.0523

RRIRVRPPRLPRPRPRPPAIPRP
shrunken log2 fold change: 0.376

RRIRERPPRLPRPRPRPHNWPRP
shrunken log2 fold change: -0.363

RRIRCRPPRLPRPRPRPIDAPRP
shrunken log2 fold change: -0.268

RRIRMRPPRLPRPRPRPTVKPRP
shrunken log2 fold change: -0.0616

RRIRFRPPRLPRPRPRPIVGPRP
shrunken log2 fold change: -0.0769

RRIRVRPPRLPRPRPRPAQLPRP
shrunken log2 fold change: 0.0744

RRIRYRPPRLPRPRPRPRSAPRP
shrunken log2 fold change: -0.0647

RRIRTRPPRLPRPRPRPMSNPRP
shrunken log2 fold change: -0.535

RRIRFRPPRLPRPRPRPCMAPRP
shrunken log2 fold change: -0.594

RRIRKRPPRLPRPRPRPHFPPRP
shrunken log2 fold change: 0.179

RRIRVRPPRLPRPRPRPGHNPRP
shrunken log2 fold change: -0.131

RRIRMRPPRLPRPRPRPHIMPRP
shrunken log2 fold change: -0.422

RRIRPRPPRLPRPRPRPEDKPRP
shrunken log2 fold change: 0.163

RRIRDRPPRLPRPRPRPELCPRP
shrunken log2 fold change: -0.0337

RRIRFRPPRLPRPRPRPGYAPRP
shrunken log2 fold change: -0.0137

RRIRFRPPRLPRPRPRPISAPRP
shrunken log2 fold change: 0.0624

RRIRQRPPRLPRPRPRPVSIPRP
shrunken log2 fold change: 0.0429

RRIRVRPPRLPRPRPRPGFRPRP
shrunken log2 fold change: 0.205

RRIRLRPPRLPRPRPRPMWKPRP
shrunken log2 fold change: -0.0297

RRIRRRPPRLPRPRPRPVFLPRP
shrunken log2 fold change: 0.0173

RRIRQRPPRLPRPRPRPHGFPRP
shrunken log2 fold change: -0.0134

RRIRYRPPRLPRPRPRPLNDPRP
shrunken log2 fold change: -0.0303

RRIRCRPPRLPRPRPRPYGLPRP
shrunken log2 fold change: -0.0136

RRIRSRPPRLPRPRPRPASYPRP
shrunken log2 fold change: 0.102

RRIRHRPPRLPRPRPRPCFTPRP
shrunken log2 fold change: -0.838

RRIRSRPPRLPRPRPRPWSFPRP
shrunken log2 fold change: 0.0324

RRIRVRPPRLPRPRPRPEKYPRP
shrunken log2 fold change: -0.171

RRIRTRPPRLPRPRPRPHNLPRP
shrunken log2 fold change: -0.274

RRIRWRPPRLPRPRPRPWSEPRP
shrunken log2 fold change: -0.206

RRIRKRPPRLPRPRPRPSAPPRP
shrunken log2 fold change: 0.504

RRIRYRPPRLPRPRPRPNAGPRP
shrunken log2 fold change: -0.31

RRIRGRPPRLPRPRPRPYGPPRP
shrunken log2 fold change: 0.0138

RRIRGRPPRLPRPRPRPLCYPRP
shrunken log2 fold change: 0.238

RRIRRRPPRLPRPRPRPGKIPRP
shrunken log2 fold change: 0.343

RRIRCRPPRLPRPRPRPIGWPRP
shrunken log2 fold change: -0.0817

RRIRYRPPRLPRPRPRPGDIPRP
shrunken log2 fold change: -0.0107

RRIRMRPPRLPRPRPRPCTWPRP
shrunken log2 fold change: -0.0287

RRIRPRPPRLPRPRPRPQFYPRP
shrunken log2 fold change: -0.592

RRIRHRPPRLPRPRPRPFRSPRP
shrunken log2 fold change: -0.000777

RRIRKRPPRLPRPRPRPWLFPRP
shrunken log2 fold change: 0.202

RRIRKRPPRLPRPRPRPSFGPRP
shrunken log2 fold change: -0.324

RRIRERPPRLPRPRPRPEITPRP
shrunken log2 fold change: -0.045

RRIRERPPRLPRPRPRPRKFPRP
shrunken log2 fold change: 0.173

RRIRLRPPRLPRPRPRPCSYPRP
shrunken log2 fold change: -0.259

RRIRLRPPRLPRPRPRPKLKPRP
shrunken log2 fold change: 0.295

RRIRNRPPRLPRPRPRPAFYPRP
shrunken log2 fold change: -0.065

RRIRSRPPRLPRPRPRPLVHPRP
shrunken log2 fold change: -0.253

RRIRKRPPRLPRPRPRPNANPRP
shrunken log2 fold change: 0.135

RRIRDRPPRLPRPRPRPGLLPRP
shrunken log2 fold change: 0.16

RRIRLRPPRLPRPRPRPPPVPRP
shrunken log2 fold change: 0.98

RRIRFRPPRLPRPRPRPKAVPRP
shrunken log2 fold change: -0.00146

RRIRIRPPRLPRPRPRPIYHPRP
shrunken log2 fold change: -0.622

RRIRARPPRLPRPRPRPQIYPRP
shrunken log2 fold change: -0.354

RRIRVRPPRLPRPRPRPMNFPRP
shrunken log2 fold change: -0.349

RRIRTRPPRLPRPRPRPYENPRP
shrunken log2 fold change: -0.0748

RRIRLRPPRLPRPRPRPAIQPRP
shrunken log2 fold change: 0.987

RRIRERPPRLPRPRPRPCVEPRP
shrunken log2 fold change: -0.11

RRIRIRPPRLPRPRPRPTMPPRP
shrunken log2 fold change: -0.22

RRIRIRPPRLPRPRPRPPTIPRP
shrunken log2 fold change: -0.904

RRIRCRPPRLPRPRPRPINVPRP
shrunken log2 fold change: -0.307

RRIRNRPPRLPRPRPRPMHGPRP
shrunken log2 fold change: -0.0225

RRIRSRPPRLPRPRPRPPTPPRP
shrunken log2 fold change: 0.63

RRIRNRPPRLPRPRPRPCWQPRP
shrunken log2 fold change: -0.0118

RRIRERPPRLPRPRPRPSICPRP
shrunken log2 fold change: -0.151

RRIRMRPPRLPRPRPRPTKAPRP
shrunken log2 fold change: 0.26

RRIRVRPPRLPRPRPRPNDPPRP
shrunken log2 fold change: -0.0659

RRIRMRPPRLPRPRPRPHFQPRP
shrunken log2 fold change: 0.22
